In patent US20040172671A1, “Transgenic plants protected against parasitic plants” (priority 2001, published 2004):

Tests used:
[1] = test system: Orobanche aegyptiaca seeds; experiment: Petri dish assay: effect of SLP on O. aegyptiaca seed germination and radicle elongation; format: in vivo
Procedure: The effect of the direct application of the lytic toxin Sarcotoxin IA (SLP) to seeds of the parasitic plant O. aegyptiaca was assayed. SLP was obtained by production in S. cerevisiae, and applied to seeds during both preconditioning and germination stages as follows: Yeast strain Y426-MATa yeast cells transformed with a yeast shuttle vector-pFL61 to express the sarcotoxin IA were cultured in -URA liquid media at 30° C. for 72 h as described in Aly et al. (1999). The cultures were then centrifuged for 5 min at 4000 g and the supernatant collected for SLP assay. Quantitative evaluation of the SLP concentration present in the growth media was obtained by Western blot analysis. The effect of SLP on O. aegyptiaca seeds was determined in a Petri dish assay. Parasite seeds were surface-sterilized, dispersed on Whatman GF/A glass-fiber (0.7 cm diam.), covered with the same filter, and placed in a Petri dish. […] After incubation in dark at 26° C. for 7 days, seeds were rated for radicles damage.

[2] = test system: several bacteria, including plant pathogenic bacteria; details: SLP secreted from yeast cells (Aly et al, 1999); cited from earlier work
[3] = SLP 10 μM applied at germination (three days after GR24)
[4] = SLP 20 μM applied at germination
[5] = SLP 20 μM applied at preconditioning
[6] = SLP 30 μM applied at germination
[7] = SLP 30 μM applied at preconditioning
[8] = SLP 40 μM applied at germination
[9] = SLP 40 μM applied at preconditioning

B1: sarcotoxin IA (protein, listed as Sarcophaga peregrina)
chain: MNFQNIFIFVALILAVFAGQSQAGWLKKIGKKIERVGQHTRDATIQGLGIAQQAANVAATARG
Question: Which “Gemination (% of control)” value [1, 3] does the source give for B1 here?
Answer: 80 ± 6 % of control

Question: And the “Radicle length (% of control)” value [1, 3]?
Answer: 65 ± 5 % of control

Question: And the “Radicle length (% of control)” value ([1]; SLP 10 μM applied at preconditioning (mixed with GR24))?
Answer: 65 ± 6 % of control

Question: And the “Gemination (% of control)” value ([1]; SLP 10 μM applied at preconditioning (mixed with GR24), 7 days, 26° C., dark)?
Answer: 76 ± 3 % of control

Question: What about the “Gemination (% of control)” value [1, 4] of the same molecule?
Answer: 76 ± 8 % of control

Question: What about the “Radicle length (% of control)” value [1, 4] of the same molecule?
Answer: 47 ± 3 % of control

Question: What about the “Gemination (% of control)” value [1, 5] of the same molecule?
Answer: 69 ± 6 % of control

Question: And the “Radicle length (% of control)” value [1, 5]?
Answer: 52 ± 2 % of control

Question: What about the “Gemination (% of control)” value [1, 6] of the same molecule?
Answer: 43 ± 7 % of control

Question: What about the “Radicle length (% of control)” value [1, 6] of the same molecule?
Answer: 33 ± 4 % of control

Question: And the “Gemination (% of control)” value [1, 7]?
Answer: 6 ± 1 % of control

Question: And the “Radicle length (% of control)” value [1, 7]?
Answer: 12 ± 8 % of control

Question: What about the “Gemination (% of control)” value [1, 8] of the same molecule?
Answer: 36 ± 2 % of control

Question: What about the “Radicle length (% of control)” value [1, 8] of the same molecule?
Answer: 4 ± 1 % of control

Question: What about the “Gemination (% of control)” value [1, 9] of the same molecule?
Answer: 0 % of control

Question: What about the “Radicle length (% of control)” value [1, 9] of the same molecule?
Answer: 0 % of control

Question: And the “radicle elongation and seed germination of the parasite” value ([1]; presence of SLP, in words)?
Answer: significantly reduced

Question: And the “cytotoxic effect against bacteria” value [2]?
Answer: potent cytotoxic effect
